From patent publication US20260232800A1 (ADAPTIMMUNE, published 2026)
Changes are numbered by the printed parent chain.

Target: complex of PRAME peptide … (SEQ ID NO: 1) and HLA-A*02:01, presented on peptide-pulsed T2 cells (human)
Test: cell-based or functional assay

B1: TCR 3 (ADB02780_025) (TCR, V domains shown)
V domain 1: GQQLNQSPQSMFIQEGEDVSMNCTSSSIFNTWLWYKQDPGEGPVLLIALYKAGELTSNGRLTAQFGITRKDSFLNISASIPSDVGIYFCAGQASGTYKYIFGTGTRLKVLA
V domain 2: EAQVTQNPRYLITVTGKKLTVTCSQNMNHEYMSWYRQDPGLGLRQIYYSINVEVTDKGDVPEGYKVSRKEKRNFPLILESPSPNQTSLYFCASSHGTSGEQYFGPGTRLTVT
EC50 (peptide concentration required to induce half-maximal T-cell activation; IFNγ supernatant ELISA, transduced primary T cells with peptide-pulsed T2 cells): -7.8 log10 M

B2: TCR 6 (ADB02780_070) (TCR, V domains shown)
V domain 1: B1 V domain 1 with N30V
V domain 2: B1 V domain 2
EC50 (peptide concentration required to induce half-maximal T-cell activation; IFNγ supernatant ELISA, transduced primary T cells with peptide-pulsed T2 cells): -8.8 log10 M

B3: TCR 8 (ADB02780_106) (TCR, V domains shown)
V domain 1: B1 V domain 1 with N30A
V domain 2: B1 V domain 2
EC50 (peptide concentration required to induce half-maximal T-cell activation; IFNγ supernatant ELISA, transduced primary T cells with peptide-pulsed T2 cells): -7.8 log10 M

B4: TCR 7 (ADB02780_077) (TCR, V domains shown)
V domain 1: B1 V domain 1 with N30H
V domain 2: B1 V domain 2
EC50 (peptide concentration required to induce half-maximal T-cell activation; IFNγ supernatant ELISA, transduced primary T cells with peptide-pulsed T2 cells): -8.7 log10 M

B5: TCR 5 (ADB02780_063) (TCR, V domains shown)
V domain 1: B1 V domain 1 with N30E
V domain 2: B1 V domain 2
EC50 (peptide concentration required to induce half-maximal T-cell activation; IFNγ supernatant ELISA, transduced primary T cells with peptide-pulsed T2 cells): -8.8 log10 M

B6: TCR 4 (ADB02780_062) (TCR, V domains shown)
V domain 1: B1 V domain 1 with N30L
V domain 2: B1 V domain 2
EC50 (peptide concentration required to induce half-maximal T-cell activation; IFNγ supernatant ELISA, transduced primary T cells with peptide-pulsed T2 cells): -8.7 log10 M

B7: TCR 9 (ADB02780_107) (TCR, V domains shown)
V domain 1: B1 V domain 1 with N30M
V domain 2: B1 V domain 2
EC50 (peptide concentration required to induce half-maximal T-cell activation; IFNγ supernatant ELISA, transduced primary T cells with peptide-pulsed T2 cells): -7.8 log10 M
